Experiments:
[1] = target: membrane-bound endogenous human CEACAM5 and CEACAM6 on BxPC3 cells; experiment: flow cytometry on BxPC3 cells with against without 100 nM soluble CEACAM6
[2] = target: membrane-bound endogenous human CEACAM5 and CEACAM6 on LS 174T cells; experiment: flow cytometry on LS174T cells with against without 100 nM soluble CEACAM6
[3] = target: membrane-bound endogenous human CEACAM5 and CEACAM6 on A549 cells; experiment: flow cytometry on A549 cells (printed over the panel: CEACAM5-, CEACAM6+), MFI

fold change of EC50 at the presence of 100 nM soluble protein [1]: 4.1 fold | fold change of EC50 at the presence of 100 nM soluble protein [2]: 6.9 fold | EC50 (read off the curve) [3]: 0.1 nM
B1: PR303563 (Tinurilimab) (antibody, human IgG2, kappa, V domains shown)
VH: QVTLRESGPALVKPTQTLTLTCTFSGFSLSTYGIGVGWIRQPPGKALEWLAHIWWNDNKYYSTSLKTRLTISKDTSKNQVVLTMTNMDPVDTATYYCARISLPYFDYWGQGTTLTVSS
VL: DIQLTQSPSFLSASVGDRVTITCKASQNVGTAVAWYQQKPGKAPKLLIYSASNRYTGVPSRFSGSGSGTEFTLTISSLQPEDFATYYCQQYSSYPLTFGGGTKVEIKR
